These results are taken from patent US6699677B1, “Tethered ligands and methods of use” (ChemoCentryx, Inc., priority 1999, dated 2004).

Assay [1] addresses T1, CCR4 (Homo sapiens, UniProt P51679).
T1 sequence (P51679 1-360): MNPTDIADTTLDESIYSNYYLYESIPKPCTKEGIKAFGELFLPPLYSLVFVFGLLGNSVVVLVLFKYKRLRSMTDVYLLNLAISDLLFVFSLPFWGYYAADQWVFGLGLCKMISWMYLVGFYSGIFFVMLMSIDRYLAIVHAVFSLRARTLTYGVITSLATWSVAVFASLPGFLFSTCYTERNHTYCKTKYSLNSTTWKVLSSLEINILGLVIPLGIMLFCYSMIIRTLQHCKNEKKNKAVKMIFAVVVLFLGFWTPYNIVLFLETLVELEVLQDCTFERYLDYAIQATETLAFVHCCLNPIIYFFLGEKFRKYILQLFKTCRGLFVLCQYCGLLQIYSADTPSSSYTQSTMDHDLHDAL
The assay is described as follows: Binding of CCR4-NSO cells to immobilized stalkokines and competition by soluble chemokine. Details: host or cells: mouse myeloma NSO. The protocol: Following, the liquid in each well was aspirated and washed once for approximately 5 minutes with 500 ul of PBS. The wells were then “blocked” (blocked for any additional protein binding sites) with the addition of 250 ul of blocking solution (2% fetal bovine serum, 0.5% BSA in PBS) and incubation for 1 hour at room temp (e.g., 20° C.). […] Each slide contained two wells with control supernatant (from mock-transfected cells) and two wells with the positive control SDF1a (which binds the ubiquitous chemokine receptor CXCR4). The four other wells were for experimental samples. The supernatants were incubated for one hour at room temperature (typically 20° C.), then incubated for an additional hour at 37° C. The supernatants were aspirated off, and each well was washed once for 5 minutes with 500 ul of PBS. The slide was then ready for addition of cells for assay.
Several types of cells were used in binding experiments to stalkokines of the invention, including transfected mouse myeloma NSO cells containing a mammalian expression vector driving expression of the receptor of interest, e.g., CCR1, CCR4, CCR6, CCR7, CCR8, CXCR4, CMV US28 (gift of R&D Systems (Minneapolis, Minn.)).
In an experiment, CCR4-NSO cells were used to test binding competition. Harvested CCR4 NSO cells were resuspended at 2×10^6 cells per ml in PBS. […] 250 ul of cells that were not pre-treated with soluble chemokine were added to additional wells. The slides were incubated for 1.5 hours at room temp, then the supernatant gently aspirated. The chamber portion of the slide was removed (using the apparatus provided by the supplier) and the slide was washed by gentle immersion into a petri dish containing PBS to a depth of 1cm. This was repeated 3 times in total, and the slide was immersed in a 1% glutaraldehyde solution (in PBS) for 5 minutes at room temperature. The cells were inspected and enumerated visually by microscopy.

Assay [2] has as its target T1, CCR4. The assay is described as follows: Displacement of radiolabeled MDC or TARC tracer from CEM cells expressing CCR4. It counts as binding. Details: endogenous in cells; host or cells: CEM cells. To be noted: supernatants with soluble stalkokine, compared with control supernatant. The protocol: Briefly, CEM cells we added to radiolabeled chemokine “tracer” (MDC or TARC) in the presence of competitor molecules such as supernatants expressing the soluble MDC-FRAC (a stalkokine with a fractalkine stalk and an MDC ligand domain) or TARC-FRAC (a stalkokine with a fractalkine stalk and an TARC ligand domain). The cells and tracer were incubated and harvested by filtration, capturing the bound tracer. The material was then counted. “Total” is the amount of tracer bound with no competition.

Assay [3] deals with T2, CCR10 (Homo sapiens, UniProt Q9NPB9).
T2 construct: Full length CCR10 expression constructs were made in pIRESpuro expression vector; expressed in transfected cells; HEK293-CCR10)
T2 sequence (Q9NPB9 1-350): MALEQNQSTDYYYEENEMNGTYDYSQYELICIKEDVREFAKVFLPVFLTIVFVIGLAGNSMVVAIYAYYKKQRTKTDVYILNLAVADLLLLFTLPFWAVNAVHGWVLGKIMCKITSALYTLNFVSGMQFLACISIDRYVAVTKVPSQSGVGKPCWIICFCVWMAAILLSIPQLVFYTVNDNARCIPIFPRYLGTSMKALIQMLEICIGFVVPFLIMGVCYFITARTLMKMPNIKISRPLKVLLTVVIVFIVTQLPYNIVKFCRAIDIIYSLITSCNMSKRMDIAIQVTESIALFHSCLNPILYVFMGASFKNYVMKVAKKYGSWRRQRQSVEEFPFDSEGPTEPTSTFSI
In words: Spectrum of ligands that bind to CCR10. It counts as binding. An excerpt:
Furthermore ELC-SK mediated adhesion was abolished in the presence of soluble native ELC as a competitor (FIG. 3A, top row). […] Moreover, radiolabeled ELC was used in a traditional homologous competition assay in the presence of increasing concentrations of unlabeled ELC. […] Taken together, the stalkokine-based adhesion and radiolabeled ligand binding/homologous competition assays indicate that CCR10 is a new chemokine receptor that bound a novel compliment of chemokines.

For the next assay, the target named is T3, CXCR4 (Homo sapiens, UniProt P61073).
T3 construct: host or cells: mouse myeloma NSO
In words: Binding of CXCR4-NSO cells to immobilized stalkokines. Here is the method:
In one set of experiments, five 8 well chamber slides (Lab-Tek II, Nalge Nunc International, Rochester, N.Y.), 250 ul of 10 ug/ml anti-his antibody (R&D Systems, Minneapolis, Minn.) in PBS was added to each well and incubated at room temperature overnight (typically 16 hours). Following, the liquid in each well was aspirated and washed once for approximately 5 minutes with 500 ul of PBS. The wells were then “blocked” (blocked for any additional protein binding sites) with the addition of 250 ul of blocking solution (2% fetal bovine serum, 0.5% BSA in PBS) and incubation for 1 hour at room temp (e.g., 20° C.). The liquid in each well was aspirated and 250 ul of supernatant containing the chemokine-stalk-immobilization domain fusion proteins (SDF1a-FRAC, finetaxin-FRAC, CCL27-FRAC, 1309-FRAC, MIP3a-FRAC, ELC-FRAC, SLC-FRAC, MDC-FRAC, TARC-FRAC, or BRAK-FRAC) or the control supernatant was added to two wells. Each slide contained two wells with control supernatant (from mock-transfected cells) and two wells with the positive control SDF1a (which binds the ubiquitous chemokine receptor CXCR4). The four other wells were for experimental samples. The supernatants were incubated for one hour at room temperature (typically 20° C.), then incubated for an additional hour at 37° C. […] The slide was then ready for addition of cells for assay. […]

The target of assay [4] is T1, CCR4. In words: Calcium mobilization in INDO-1AM loaded CEM cells expressing CCR4. Also noted: endogenous in cells; host or cells: CEM cells. It counts as cell-based. To be noted: fusion protein supernatant added at 80 sec. Here is the method:
Briefly, CEM cells that express CCR4 were placed in a fluorimeter and monitored over time for changes in fluorescence. […] TARC-Fractalkine or MDC-Fractalkine (fusion protein supernatants), or control supernatants, were added at the following times: experiment 1, control supernatant added at 50 sec, TARK-FRAC at 80 sec; experiment 2, control supernatant at 50 sec and MDC-FRAC at 80 sec.

The target in assay [5] is T2, CCR10. The assay is described as follows: Adhesion of HEK293-CCR10 cells to immobilized stalkokines, with or without soluble chemokine competitors. Type of assay: binding. To be noted: stalkokine immobilized via anti-His anchoring antibody, 500,000 cells, 1.5 hrs at RT. The protocol: To determine ligand binding to CCR10, HEK293-CCR10 cells were used to interrogate chemokine “stalkokines” (SK), i.e., molecules in which discrete chemokine domains were engineered to be tethered to the end of an extended stalk structure. Stalkokines were interrogated using 8-well chamber slides coated first with anti-His anchoring antibody (10 ug/ml in PBS overnight at RT), which were washed and ‘blocked’ (2% FBS/0.5% BSA in PBS); treated with 250 ul of HEK293 cell stalkokine supernatants (1 hr at 37C), and incubated with 500,000 HEK293-CCR10 transfectants (1.5 hrs at RT). Inhibition of adhesion by competition with soluble chemokines was done by incubating cells with 5-10 ug/ml of recombinant chemokines. In all cases, nonadherent cells were removed by washing in PBS; remaining adherent cells were fixed with 1% glutaraldehyde, photoimaged and counted. As a primary screen, this adhesion would reveal putative receptor-ligand interactions.

T3 sequence (P61073 whole entry): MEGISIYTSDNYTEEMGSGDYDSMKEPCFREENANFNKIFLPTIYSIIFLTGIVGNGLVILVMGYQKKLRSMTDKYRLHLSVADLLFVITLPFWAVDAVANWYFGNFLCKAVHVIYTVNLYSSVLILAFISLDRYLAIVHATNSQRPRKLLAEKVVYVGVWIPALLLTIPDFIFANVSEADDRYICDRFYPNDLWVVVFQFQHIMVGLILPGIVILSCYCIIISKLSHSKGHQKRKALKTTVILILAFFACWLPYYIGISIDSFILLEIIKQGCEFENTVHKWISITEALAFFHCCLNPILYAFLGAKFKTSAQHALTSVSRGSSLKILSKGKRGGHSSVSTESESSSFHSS

B1: MDC: recombinant human chemokine, natural ligand for CCR4 (protein)
chain: GPYGANMEDSVCCRDYVRYRLPLRVVKHFYWTSDSCPRPGVVLLTFRDKEICADPRVPWVKMILNKLSQ
As for B1, the “Binding to Stalkokine form” value with CCR4 [1] is given as “yes, yes”. For the same molecule, the “Inhibition of binding of MDC or TARC tracer to CEM cells” value (“Inhibition” below) with CCR4 [2] is given as “maximal level of competition”.

B2: vMIPII: viral chemokine (protein)
chain: GDTLGASWHRPDKCCLGYQKRPLPQVLLSSWYPTSQLCSKPGVIFLTKRGRQVCADKSKDWVKKLMQQLPVTAR
In the case of B2, the “Affinity of binding to CCR10” value with CCR10 [3] was “lower affinity”. Also, the “Binding to Stalkokine form” value in the assay with CXCR4 is given as “yes”.

B3: FK: fractalkine, natural membrane protein with a chemokine domain tethered on a long mucin-like stalk (protein)
chain: QHHGVTKCNITCSKMTSKIPVALLIHYQQNQASCGKRAIILETRQHRLFCADPKEQWVKDAMQHLDRQAAALTRNGGTFEKQIGEVKPRTTPAAGGMDESVVLEPEATGESSSLEPTPSSQEAQRALGTSPELPTGVTGSSGTRLPPTPKAQDGGPVGTELFRVPPVSTAATWQSSAPHQPGPSLWAEAKTSEAPSTQDPSTQASTASSPAPEENAPSEGQRVWGQGQSPRPENSLEREEMGPVPAHTDAFQDWGPGSMAHVSVVPVSSEGTPSREPVASGSWTPKAEEPIHATMDPQRLGVLITPVPDAQA
In the case of B3, the “Binding to Stalkokine form” value with CXCR4 is “yes”.

B4: MDC-FRAC: a stalkokine with a fractalkine stalk and an MDC ligand domain (protein)
chain: GPYGANMEDSVCCRDYVRYRLPLRVVKHFYWTSDSCPRPGVVLLTFRDKEICADPRVPWVKMILNKLSQEFGGTFEKQIGEVKPRTTPAAGGMDESVVLEPEATGESSSLEPTPSSQEAQRALGTSPELPTGVTGSSGTRLPPTPKAQDGGPVGTELFRVPPVSTAATWQSSAPHQPGPSLWAEAKTSEAPSTQDPSTQASTASSPAPEENAPSEGQRVWGQGQSPRPENSLEREEMGPVPAHTDAFQDWGPGSMAHVSVVPVSSEGTPSREPVASGSWTPKAEEPIHATMDPQRLGVLITPVPDAQA
modifications: left off: small tags and cut ends
notes: a stalkokine with a fractalkine stalk and an MDC ligand domain
For the molecule B4, the “Binding to Stalkokine form” value with CCR4 [1] is reported as “bound”. Besides, the “Inhibition” value in the assay with CCR4 [2] was “significant further decrease”. The figures for the “Calcium influx / calcium signaling” value with CCR4 [4] and with CCR4 [4] (listed as MDC-Stalkokine) were “modest influx” and “induction of calcium signaling”, respectively.

B5: TARC-FRAC: a stalkokine with a fractalkine stalk and an TARC ligand domain (protein)
chain: ARGTNVGRECCLEYFKGAIPLRKLKTWYQTSEDCSRDAIVFVTVQGRAICSDPNNKRVKNAVKYLQSLERSEFGGTFEKQIGEVKPRTTPAAGGMDESVVLEPEATGESSSLEPTPSSQEAQRALGTSPELPTGVTGSSGTRLPPTPKAQDGGPVGTELFRVPPVSTAATWQSSAPHQPGPSLWAEAKTSEAPSTQDPSTQASTASSPAPEENAPSEGQRVWGQGQSPRPENSLEREEMGPVPAHTDAFQDWGPGSMAHVSVVPVSSEGTPSREPVASGSWTPKAEEPIHATMDPQRLGVLITPVPDAQA
modifications: left off: small tags and cut ends
notes: a stalkokine with a fractalkine stalk and an TARC ligand domain
As for B5, the “Binding to Stalkokine form” value in the assay with CCR4 [1] was “bound”. The “Inhibition” value with CCR4 [2] was “significant further decrease”. Also, the figures for the “Calcium influx / calcium signaling” value in the assay with CCR4 [4] and in the assay with CCR4 [4] (listed as TARC-Stalkokine) were “modest influx” and “induction of calcium signaling”, respectively.

B6: ELC-SK: tethered ligand fusion protein: ELC chemokine domain, human fractalkine mucin stalk, myc/poly-histidine immobilization domain (protein)
chain: GTNDAEDCCLSVTQKPIPGYIVRNFHYLLIKDGCRVPAVVFTTLRGRQLCAPPDQPWVERIIQRLQRTSAKMKRRSSEFGGTFEKQIGEVKPRTTPAAGGMDESVVLEPEATGESSSLEPTPSSQEAQRALGTSPELPTGVTGSSGTRLPPTPKAQDGGPVGTELFRVPPVSTAATWQSSAPHQPGPSLWAEAKTSEAPSTQDPSTQASTASSPAPEENAPSEGQRVWGQGQSPRPENSLEREEMGPVPAHTDAFQDWGPGSMAHVSVVPVSSEGTPSREPVASGSWTPKAEEPIHATMDPQRLGVLITPVPDAQA
modifications: left off: small tags and cut ends
Turning to B6, the “Adhesion of HEK293-CCR10 cells to immobilized stalkokine” value with CCR10 [5] was “adhered very well”; with CCR10 [5] (listed as ELC-stalkokine (SK)) it was “strong adhesion”.
